Assay results published in the supplement of paper PMC9732359.
± gives the uncertainty stated by the source.

Experiment: protein stability index of a GFP-peptide fusion (yeast GPS) (PSI 1-4); higher = more stable; sorted into four equal gates, so the index is relative within each strain
Method in brief: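 Tiled 17-residue yeast protein peptides were fused downstream of GFP in a plasmid that also expresses Cherry, and the pooled library was carried in yeast. Mid-log cultures in leucine-free medium were sorted into four equal gates by GFP/Cherry fluorescence ratio, and plasmids from each gate were PCR-amplified and Illumina-sequenced, with reads assigned to strains by barcodes. The protein stability index for each peptide was each gate's read frequency times its gate number, summed.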

SDELHNQSTIYEDEELS [LIN1]
protein stability index (doa10∆): 3 ± 0.079 | protein stability index (pdr5∆): 2.87 ± 0.098 | protein stability index (san1∆): 3.11 ± 0.07 | protein stability index (ubr1∆): 2.97 ± 0.077

EDGMIIDVNLNFARQLL [RRP40]
protein stability index (doa10∆): 3.15 ± 0.086 | protein stability index (pdr5∆): 3.23 ± 0.074 | protein stability index (san1∆): 3.26 ± 0.079 | protein stability index (ubr1∆): 3.11 ± 0.063

KINRPPVSVSRIARALK [RPL18A]
protein stability index (pdr5∆): 2.06 ± 0.1 | protein stability index (san1∆): 1.97 ± 0.13 | protein stability index (ubr1∆): 2.66 ± 0.18

NANDETTAVEDEDDDLD [RPB4]
protein stability index (doa10∆): 3.47 ± 0.1 | protein stability index (pdr5∆): 3.13 ± 0.1 | protein stability index (san1∆): 3.25 ± 0.093 | protein stability index (ubr1∆): 3.25 ± 0.092

KYLYLRAVGGEVGASAA [RPL12A]
protein stability index (doa10∆): 1.66 ± 0.18 | protein stability index (pdr5∆): 1.99 ± 0.13 | protein stability index (san1∆): 1.64 ± 0.13 | protein stability index (ubr1∆): 2.11 ± 0.1

SNGVLNVDNQTSDLVKS [RPS17A]
protein stability index (doa10∆): 2.83 ± 0.12 | protein stability index (pdr5∆): 2.88 ± 0.12 | protein stability index (san1∆): 3.06 ± 0.18 | protein stability index (ubr1∆): 2.86 ± 0.075

EITQQEKGLNELSIRDV [SMC4]
protein stability index (doa10∆): 1.75 ± 0.11 | protein stability index (pdr5∆): 2.64 ± 0.076 | protein stability index (san1∆): 2.74 ± 0.089 | protein stability index (ubr1∆): 1.85 ± 0.087

DLKKFTSTITKYKQLLL [RPN3]
protein stability index (doa10∆): 2.92 ± 0.089 | protein stability index (pdr5∆): 3 ± 0.055 | protein stability index (san1∆): 2.91 ± 0.066 | protein stability index (ubr1∆): 3.07 ± 0.045

VEYKLTFVPTNSDKPRD [DIS3]
protein stability index (doa10∆): 1.21 ± 0.14 | protein stability index (pdr5∆): 1.31 ± 0.094 | protein stability index (san1∆): 1.19 ± 0.24 | protein stability index (ubr1∆): 1.05 ± 0.11

TKSNRRVSHSDTNSSKP [SIR4]
protein stability index (doa10∆): 2.97 ± 0.077 | protein stability index (pdr5∆): 3.19 ± 0.085 | protein stability index (san1∆): 2.99 ± 0.077 | protein stability index (ubr1∆): 3.25 ± 0.053

VRNKSYPVYTRLRTLCR [DIS3]
protein stability index (doa10∆): 2.65 ± 0.08 | protein stability index (pdr5∆): 2.83 ± 0.072 | protein stability index (san1∆): 3.06 ± 0.11 | protein stability index (ubr1∆): 2.46 ± 0.051

PTITLDDVYRPAAESKI [SNF5]
protein stability index (doa10∆): 3.13 ± 0.068 | protein stability index (pdr5∆): 3.11 ± 0.071 | protein stability index (san1∆): 3.02 ± 0.09 | protein stability index (ubr1∆): 2.98 ± 0.068

RKWMEEKADYERELISN [YIL149C/MLP2]
protein stability index (doa10∆): 3.23 ± 0.045 | protein stability index (pdr5∆): 3.35 ± 0.086 | protein stability index (san1∆): 3.11 ± 0.04 | protein stability index (ubr1∆): 3.31 ± 0.063

PSSLNSDKIPYVAPTKK [SRB4]
protein stability index (doa10∆): 2.24 ± 0.073 | protein stability index (pdr5∆): 2.59 ± 0.1 | protein stability index (san1∆): 2.15 ± 0.086 | protein stability index (ubr1∆): 2.09 ± 0.063

PQTMEHYKQQIAVLIEL [YCS4]
protein stability index (doa10∆): 3.01 ± 0.083 | protein stability index (pdr5∆): 3.05 ± 0.12 | protein stability index (san1∆): 2.92 ± 0.11 | protein stability index (ubr1∆): 2.52 ± 0.066

QANIQLYSIREDYELSP [PRE1]
protein stability index (doa10∆): 2.96 ± 0.1 | protein stability index (pdr5∆): 2.82 ± 0.093 | protein stability index (san1∆): 3.01 ± 0.074 | protein stability index (ubr1∆): 3.46 ± 0.11

DLNNAVQKRDEVKEQLG [SMC4]
protein stability index (doa10∆): 2.95 ± 0.055 | protein stability index (pdr5∆): 2.99 ± 0.056 | protein stability index (san1∆): 3.15 ± 0.046 | protein stability index (ubr1∆): 2.83 ± 0.042

FQFKLLQSNSKLASTLE [SMC4]
protein stability index (doa10∆): 2.29 ± 0.056 | protein stability index (pdr5∆): 2.37 ± 0.042 | protein stability index (san1∆): 2.42 ± 0.055 | protein stability index (ubr1∆): 2.58 ± 0.038

PFLLMELHKKLVEAAKL [YDL116W/NUP84]
protein stability index (doa10∆): 1.41 ± 0.11 | protein stability index (pdr5∆): 1.13 ± 0.093 | protein stability index (ubr1∆): 1.25 ± 0.13

AAQTNATFLKLAAPQLV [RPT5]
protein stability index (doa10∆): 2.62 ± 0.16 | protein stability index (pdr5∆): 3.17 ± 0.15 | protein stability index (san1∆): 2.41 ± 0.083 | protein stability index (ubr1∆): 2.86 ± 0.11

QTMQLIKNVQDLLILTR [SRB6]
protein stability index (doa10∆): 1.51 ± 0.087 | protein stability index (pdr5∆): 1.8 ± 0.091 | protein stability index (ubr1∆): 2.09 ± 0.086

RMKSITSTSQKIPSASI [SNF5]
protein stability index (doa10∆): 3.2 ± 0.082 | protein stability index (pdr5∆): 3.18 ± 0.072 | protein stability index (san1∆): 3.17 ± 0.045 | protein stability index (ubr1∆): 3.08 ± 0.051

HDKNIQKLLKQLDSDAN [ISW2]
protein stability index (doa10∆): 2.58 ± 0.049 | protein stability index (pdr5∆): 2.52 ± 0.049 | protein stability index (san1∆): 2.69 ± 0.053 | protein stability index (ubr1∆): 2.93 ± 0.032

LLVNPDIDLETYSFIDN [YML103C/NUP188]
protein stability index (doa10∆): 2.79 ± 0.059 | protein stability index (pdr5∆): 2.6 ± 0.048 | protein stability index (san1∆): 2.66 ± 0.056 | protein stability index (ubr1∆): 2.6 ± 0.038

GLKFASFIFQYYGLVID [PRP8]
protein stability index (doa10∆): 1.73 ± 0.2 | protein stability index (pdr5∆): 1.27 ± 0.18 | protein stability index (san1∆): 1.14 ± 0.27

PALVGKLRGDLREAPAD [SNF6]
protein stability index (doa10∆): 3.19 ± 0.21 | protein stability index (pdr5∆): 3.12 ± 0.19 | protein stability index (san1∆): 2.24 ± 0.19 | protein stability index (ubr1∆): 2.5 ± 0.17

GPANNPNEFMQFKSKEV [PRP8]
protein stability index (doa10∆): 3.1 ± 0.11 | protein stability index (pdr5∆): 3.31 ± 0.083 | protein stability index (san1∆): 3.19 ± 0.044 | protein stability index (ubr1∆): 3.43 ± 0.11

DNATLTELVDKANIFQV [SSN2]
protein stability index (doa10∆): 3.09 ± 0.15 | protein stability index (pdr5∆): 3.56 ± 0.12 | protein stability index (san1∆): 3.21 ± 0.085 | protein stability index (ubr1∆): 3.11 ± 0.11

LENKADPLVSLMMVEKV [RPT6]
protein stability index (doa10∆): 2.12 ± 0.095 | protein stability index (pdr5∆): 2 ± 0.069 | protein stability index (san1∆): 2.35 ± 0.067 | protein stability index (ubr1∆): 2.2 ± 0.099

ELAQYMKTNVHTQANEP [RGR1]
protein stability index (doa10∆): 2.81 ± 0.081 | protein stability index (pdr5∆): 2.99 ± 0.086 | protein stability index (san1∆): 2.75 ± 0.064 | protein stability index (ubr1∆): 2.75 ± 0.068

SLEQRQEVTKFAKANIG [RPN4]
protein stability index (doa10∆): 2.82 ± 0.15 | protein stability index (pdr5∆): 2.98 ± 0.24 | protein stability index (san1∆): 2.83 ± 0.11

LTHSTPKNFGIGQAVQP [RPL8A]
protein stability index (doa10∆): 3.06 ± 0.06 | protein stability index (pdr5∆): 3.01 ± 0.045 | protein stability index (san1∆): 3.02 ± 0.033 | protein stability index (ubr1∆): 3.18 ± 0.036

EWFEQNNSEQDQEIVIQ [ISW2]
protein stability index (doa10∆): 3.04 ± 0.13 | protein stability index (pdr5∆): 3.19 ± 0.14 | protein stability index (san1∆): 2.45 ± 0.18 | protein stability index (ubr1∆): 3.25 ± 0.093

EQDALFITRLAQGLLHL [RPN1]
protein stability index (doa10∆): 2.88 ± 0.1 | protein stability index (pdr5∆): 2.69 ± 0.12 | protein stability index (san1∆): 2.38 ± 0.14 | protein stability index (ubr1∆): 2.29 ± 0.14

GRLDRKVEIPLPNEAGR [RPT4]
protein stability index (doa10∆): 3.16 ± 0.13 | protein stability index (pdr5∆): 3.27 ± 0.1 | protein stability index (san1∆): 3.11 ± 0.065 | protein stability index (ubr1∆): 3.09 ± 0.1

ESLREIPYGPDFDNIEF [SEC65]
protein stability index (doa10∆): 3.1 ± 0.072 | protein stability index (pdr5∆): 3.12 ± 0.067 | protein stability index (san1∆): 2.92 ± 0.087 | protein stability index (ubr1∆): 3.04 ± 0.057

INGWKFESLPLKSAENS [SWP82]
protein stability index (doa10∆): 2.92 ± 0.067 | protein stability index (pdr5∆): 3.25 ± 0.053 | protein stability index (san1∆): 2.9 ± 0.055 | protein stability index (ubr1∆): 3.03 ± 0.058

ATVPSGRPETYIWRYLP [RPO31]
protein stability index (doa10∆): 2.27 ± 0.12 | protein stability index (pdr5∆): 1.81 ± 0.092 | protein stability index (san1∆): 1.16 ± 0.16 | protein stability index (ubr1∆): 1.49 ± 0.11

RAQVLSLGDGTNYYLTT [CSL4]
protein stability index (doa10∆): 2.6 ± 0.061 | protein stability index (pdr5∆): 2.66 ± 0.05 | protein stability index (san1∆): 2.79 ± 0.048 | protein stability index (ubr1∆): 3.08 ± 0.072

SGKSNFFAAIRFVLSDD [SMC3]
protein stability index (doa10∆): 3.02 ± 0.11 | protein stability index (pdr5∆): 3.36 ± 0.096 | protein stability index (san1∆): 3.38 ± 0.08 | protein stability index (ubr1∆): 3.22 ± 0.052

ILNEVFTNPSIVKVFHG [RRP6]
protein stability index (doa10∆): 1.24 ± 0.083 | protein stability index (pdr5∆): 1.42 ± 0.075 | protein stability index (san1∆): 1.2 ± 0.18 | protein stability index (ubr1∆): 1.29 ± 0.05

QVASIIESFVELGVSIY [NUT2]
protein stability index (doa10∆): 2.77 ± 0.13 | protein stability index (pdr5∆): 2.98 ± 0.17 | protein stability index (san1∆): 2.2 ± 0.13 | protein stability index (ubr1∆): 1.76 ± 0.045

ERYFDCCTKFFTMMTSE [PCI8]
protein stability index (doa10∆): 2.38 ± 0.059 | protein stability index (pdr5∆): 2.44 ± 0.071 | protein stability index (san1∆): 2.35 ± 0.07 | protein stability index (ubr1∆): 2.29 ± 0.045

DAHGVTQARVITGNKIM [RPS13]
protein stability index (doa10∆): 2.21 ± 0.088 | protein stability index (pdr5∆): 1.61 ± 0.071 | protein stability index (san1∆): 1.22 ± 0.12 | protein stability index (ubr1∆): 1.56 ± 0.062

FIPHGLKRRQVIEQCYL [SRB8]
protein stability index (doa10∆): 2.78 ± 0.074 | protein stability index (pdr5∆): 2.63 ± 0.08 | protein stability index (san1∆): 2.46 ± 0.1 | protein stability index (ubr1∆): 2.44 ± 0.049

KLKRNSDRREHDEKLSD [LIN1]
protein stability index (doa10∆): 3.51 ± 0.23 | protein stability index (pdr5∆): 2.49 ± 0.16 | protein stability index (san1∆): 3.22 ± 0.11 | protein stability index (ubr1∆): 2.96 ± 0.13

RVSLQDIKDFADKVYTK [QCR2]
protein stability index (doa10∆): 2.85 ± 0.069 | protein stability index (pdr5∆): 3.07 ± 0.082 | protein stability index (san1∆): 2.62 ± 0.079 | protein stability index (ubr1∆): 2.67 ± 0.076

KKHGKTDYFLPKNYSLH [YJL039C/NUP192]
protein stability index (doa10∆): 2.76 ± 0.057 | protein stability index (pdr5∆): 2.63 ± 0.069 | protein stability index (san1∆): 2.71 ± 0.049 | protein stability index (ubr1∆): 2.35 ± 0.049

REKALNEEAEARRLKNR [RPL19A]
protein stability index (doa10∆): 3.21 ± 0.075 | protein stability index (pdr5∆): 3.15 ± 0.11 | protein stability index (san1∆): 3.09 ± 0.095 | protein stability index (ubr1∆): 3.24 ± 0.066

WGTLQSVSPQMNAILTD [SMD1]
protein stability index (doa10∆): 2.83 ± 0.11 | protein stability index (pdr5∆): 2.66 ± 0.1 | protein stability index (san1∆): 2.75 ± 0.057 | protein stability index (ubr1∆): 2.91 ± 0.074

AISLGLLKGSIDQVNEL [RPN9]
protein stability index (doa10∆): 3.36 ± 0.098 | protein stability index (pdr5∆): 3.08 ± 0.066 | protein stability index (san1∆): 3.16 ± 0.095 | protein stability index (ubr1∆): 3.21 ± 0.039

ELSIRFPQYKLTTFANQ [ARP7]
protein stability index (doa10∆): 1.69 ± 0.062 | protein stability index (pdr5∆): 1.51 ± 0.085 | protein stability index (san1∆): 1.65 ± 0.12 | protein stability index (ubr1∆): 1.59 ± 0.051

LLHVAVSDSNDDVRRAA [RPN2]
protein stability index (doa10∆): 3.01 ± 0.087 | protein stability index (pdr5∆): 3.22 ± 0.076 | protein stability index (san1∆): 2.69 ± 0.12 | protein stability index (ubr1∆): 3.13 ± 0.11
